{"source": "patent US6875741", "about": "(Novo Nordisk, dated 2005)"}
{"target": "T1, soluble human insulin receptor-immunoglobulin heavy chain chimera (human, UniProt P06213 28-956)", "T1 construct": "extracellular domain; Heterotetramer; also called IR; sIR-Fc; not shown: immunoglobulin heavy chain constant domains replacing the transmembrane and intr", "assay": "phage ELISA ratios compared"}
{"binder": "FYDAIDQLVRGSARAGGTRD", "note": "[R20α-3-20E2-IR]", "IR/IGF-1R ratio comparison": 0.1}
{"binder": "RQGTGSFYLMLEQLLVGARGP", "note": "[20E2B-4-G11-IGFR]", "IR/IGF-1R ratio comparison": 0.1}
{"binder": "QGGSASFYDAIDRLLRMRIGG", "note": "[20E2A-4-F11-IGFR]", "IR/IGF-1R ratio comparison": 0.1}
{"binder": "LSSDGQFYRALNLLLQGSAGR", "note": "[20E2B-2-B7-IGFR]", "IR/IGF-1R ratio comparison": 0.1}
{"binder": "EAASLGSQDRNFYDWFVRQVV", "note": "[A6S-2-D11-IR]", "IR/IGF-1R ratio comparison": 0.4}
{"binder": "RAGSSDFHEDFYEWFVRQVSLSLKGK", "note": "[H2CA-2-B9-IGFR]", "IR/IGF-1R ratio comparison": 0.2}
{"binder": "RFSTDGFYQYLLALVGGGPVG", "note": "[20E2B-1-A11-IGFR]", "IR/IGF-1R ratio comparison": 0.1}
{"binder": "TFYSCLASLLTGTPQPNRGPWERCR", "note": "[20C-3-G3-IGFR]", "IR/IGF-1R ratio comparison": "< 0.1"}
{"binder": "IQQELTFYDLLHRLVRSELGS", "note": "[20E2B-3-D2-IGFR]", "IR/IGF-1R ratio comparison": 0.1}
{"binder": "DSVGDNFYQLLESLVGGHGVG", "note": "[20E2B-3-D6-IGFR]", "IR/IGF-1R ratio comparison": 0.1}
{"binder": "IWATGDFYRLLSQLVMGRVGT", "note": "[20E2B-2-B8-IGFR]", "IR/IGF-1R ratio comparison": 0.1}
{"binder": "RCQGTGFYTCIQELIGFGDPD", "note": "[20E2B-4-H9-IGFR]", "IR/IGF-1R ratio comparison": 0.2}
{"binder": "CCLLCRFQQNFYDWFVCQGISRLRPL", "note": "[H2CA-2-B4-IGFR]", "IR/IGF-1R ratio comparison": 0.3}
{"binder": "PPLASDLDVQFYGWFVQQVSPPGRGG", "note": "[H2CA-2-B3-IGFR]", "IR/IGF-1R ratio comparison": 0.3}
{"binder": "VERSASSQDGNFYDWFVVQIR", "note": "[A6S-2-D1-IR]", "IR/IGF-1R ratio comparison": 0.4}
{"binder": "QSPVGSSHEDFYDWFFRQVAQSGAHQ", "note": "[H2CA-3-D6-IGFR]", "IR/IGF-1R ratio comparison": 0.3}
{"binder": "RGQSDAFYSGLWALIGLSDG", "note": "[R20β-4-A6-IR]", "IR/IGF-1R ratio comparison": 0.1}
{"binder": "GVRAMSFYDALVSVLGLGPSG", "note": "[20E2B-1-A6-IGFR]", "IR/IGF-1R ratio comparison": 0.1}
{"binder": "PAGPCGFYCGLGLLLHGDQSP", "note": "[20E2B-4-H8-IGFR]", "IR/IGF-1R ratio comparison": 0.2}
{"binder": "NYRRQVFNGNFYDWFDRQVFSLVTPG", "note": "[H2CA-3-D8-IGFR]", "IR/IGF-1R ratio comparison": 0.3}
{"binder": "DRAFYNGLRDLVGAVYGAWD", "note": "[R20α-4-20C11-IR]", "IR/IGF-1R ratio comparison": 0.1}
{"binder": "YSCGDGFYSLLSDLLGGQFRC", "note": "[20E2B-4-H12-IGFR]", "IR/IGF-1R ratio comparison": 0.1}
{"binder": "FFYDCLAALLQGVARYHDLCAVEIT", "note": "[20C-4-C7-IGFR]", "IR/IGF-1R ratio comparison": "< 0.1"}
{"binder": "LKDGFYDYFWQRLHLGS", "note": "[NNRPγ-4-B11-IR]", "IR/IGF-1R ratio comparison": 0.1}
{"binder": "PVGVQGFYEGLSRLVLGRGGW", "note": "[20E2B-4-F8-IGFR]", "IR/IGF-1R ratio comparison": 0.1}
{"binder": "FFYRCLSRLLGGQLGSRLGLSCIGD", "note": "[20C-3-E4-IGFR]", "IR/IGF-1R ratio comparison": 0.2}
{"target": "T2, Soluble IGF-1R (R&D Systems, Cat. # 391-GR) (UniProt P08069 31-935, limits assumed)", "T2 construct": "extracellular domain; bought; also called sIGF-1R", "assay": "phage ELISA ratios compared"}
{"binder": "FYDAIDQLVRGSARAGGTRD", "note": "[R20α-3-20E2-IR]", "IGF-1R/IR ratio comparison": 12.9}
{"binder": "RQGTGSFYLMLEQLLVGARGP", "note": "[20E2B-4-G11-IGFR]", "IGF-1R/IR ratio comparison": 7}
{"binder": "QGGSASFYDAIDRLLRMRIGG", "note": "[20E2A-4-F11-IGFR]", "IGF-1R/IR ratio comparison": 14.6}
{"binder": "LSSDGQFYRALNLLLQGSAGR", "note": "[20E2B-2-B7-IGFR]", "IGF-1R/IR ratio comparison": 6.7}
{"binder": "EAASLGSQDRNFYDWFVRQVV", "note": "[A6S-2-D11-IR]", "IGF-1R/IR ratio comparison": 2.8}
{"binder": "RAGSSDFHEDFYEWFVRQVSLSLKGK", "note": "[H2CA-2-B9-IGFR]", "IGF-1R/IR ratio comparison": 4.2}
{"binder": "RFSTDGFYQYLLALVGGGPVG", "note": "[20E2B-1-A11-IGFR]", "IGF-1R/IR ratio comparison": 9.7}
{"binder": "TFYSCLASLLTGTPQPNRGPWERCR", "note": "[20C-3-G3-IGFR]", "IGF-1R/IR ratio comparison": 27}
{"binder": "IQQELTFYDLLHRLVRSELGS", "note": "[20E2B-3-D2-IGFR]", "IGF-1R/IR ratio comparison": 11.7}
{"binder": "DSVGDNFYQLLESLVGGHGVG", "note": "[20E2B-3-D6-IGFR]", "IGF-1R/IR ratio comparison": 6.9}
{"binder": "IWATGDFYRLLSQLVMGRVGT", "note": "[20E2B-2-B8-IGFR]", "IGF-1R/IR ratio comparison": 7.2}
{"binder": "RCQGTGFYTCIQELIGFGDPD", "note": "[20E2B-4-H9-IGFR]", "IGF-1R/IR ratio comparison": 5.6}
{"binder": "CCLLCRFQQNFYDWFVCQGISRLRPL", "note": "[H2CA-2-B4-IGFR]", "IGF-1R/IR ratio comparison": 3.6}
{"binder": "PPLASDLDVQFYGWFVQQVSPPGRGG", "note": "[H2CA-2-B3-IGFR]", "IGF-1R/IR ratio comparison": 3.6}
{"binder": "VERSASSQDGNFYDWFVVQIR", "note": "[A6S-2-D1-IR]", "IGF-1R/IR ratio comparison": 2.6}
{"binder": "QSPVGSSHEDFYDWFFRQVAQSGAHQ", "note": "[H2CA-3-D6-IGFR]", "IGF-1R/IR ratio comparison": 4}
{"binder": "RGQSDAFYSGLWALIGLSDG", "note": "[R20β-4-A6-IR]", "IGF-1R/IR ratio comparison": 17.3}
{"binder": "GVRAMSFYDALVSVLGLGPSG", "note": "[20E2B-1-A6-IGFR]", "IGF-1R/IR ratio comparison": 16.8}
{"binder": "PAGPCGFYCGLGLLLHGDQSP", "note": "[20E2B-4-H8-IGFR]", "IGF-1R/IR ratio comparison": 5.9}
{"binder": "NYRRQVFNGNFYDWFDRQVFSLVTPG", "note": "[H2CA-3-D8-IGFR]", "IGF-1R/IR ratio comparison": 4}
{"binder": "DRAFYNGLRDLVGAVYGAWD", "note": "[R20α-4-20C11-IR]", "IGF-1R/IR ratio comparison": 10.3}
{"binder": "YSCGDGFYSLLSDLLGGQFRC", "note": "[20E2B-4-H12-IGFR]", "IGF-1R/IR ratio comparison": 12.8}
{"binder": "FFYDCLAALLQGVARYHDLCAVEIT", "note": "[20C-4-C7-IGFR]", "IGF-1R/IR ratio comparison": 21.8}
{"binder": "LKDGFYDYFWQRLHLGS", "note": "[NNRPγ-4-B11-IR]", "IGF-1R/IR ratio comparison": 15.5}
{"binder": "PVGVQGFYEGLSRLVLGRGGW", "note": "[20E2B-4-F8-IGFR]", "IGF-1R/IR ratio comparison": 9.7}
{"binder": "FFYRCLSRLLGGQLGSRLGLSCIGD", "note": "[20C-3-E4-IGFR]", "IGF-1R/IR ratio comparison": 6}
